From the supplement of paper PMC9112550, “Optimization of the antimicrobial peptide Bac7 by deep mutational scanning” (BMC Biology, 2022)

tested on: Escherichia coli TOP10; experiment: shrunken log2 fold change of peptide-encoding DNA abundance (4.5 h post-induction vs induction); higher = less antimicrobial activity (less host growth inhibition); conditions: time post-induction: 4.5 h; library: site-saturation at positions 5, 18, 19, 20
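Further: peptides expressed intracellularly from a pBAD plasmid library in pooled LB shake-flask culture, induced with 0.3% L-arabinose, DNA abundance read by NGS, three biological replicates, DESeq2 with apeglm shrinkage.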

Sequence | shrunken log2 fold change
RRIRLRPPRLPRPRPRPTGFPRP | -0.158
RRIRARPPRLPRPRPRPLCVPRP | 0.183
RRIRSRPPRLPRPRPRPRYKPRP | -0.154
RRIRRRPPRLPRPRPRPFFVPRP | 0.283
RRIRKRPPRLPRPRPRPNGGPRP | 0.0116
RRIRFRPPRLPRPRPRPIMHPRP | -0.212
RRIRFRPPRLPRPRPRPLEGPRP | 0.0031
RRIRHRPPRLPRPRPRPGIWPRP | 0.139
RRIRARPPRLPRPRPRPNNWPRP | 0.0825
RRIRERPPRLPRPRPRPNCRPRP | -0.238
RRIRIRPPRLPRPRPRPLGKPRP | -0.248
RRIRARPPRLPRPRPRPFQGPRP | 0.0242
RRIRYRPPRLPRPRPRPFMVPRP | -1.05
RRIRVRPPRLPRPRPRPLDWPRP | 0.188
RRIRRRPPRLPRPRPRPHCKPRP | 0.298
RRIRCRPPRLPRPRPRPRDSPRP | -0.0484
RRIRFRPPRLPRPRPRPLRTPRP | 0.703
RRIRCRPPRLPRPRPRPENRPRP | -0.168
RRIRMRPPRLPRPRPRPAWCPRP | 3.93
RRIRNRPPRLPRPRPRPNGAPRP | -0.0902
RRIRWRPPRLPRPRPRPYCPPRP | -0.441
RRIRCRPPRLPRPRPRPWCWPRP | 0.0184

Sequence | shrunken log2 fold change
RRIRCRPPRLPRPRPRPSEKPRP | -0.188
RRIRCRPPRLPRPRPRPGQEPRP | 0.094
RRIRCRPPRLPRPRPRPKNGPRP | 0.0379
RRIRMRPPRLPRPRPRPGQMPRP | 0.123
RRIRERPPRLPRPRPRPIHCPRP | -0.118
RRIRMRPPRLPRPRPRPMSVPRP | -0.00306
RRIRRRPPRLPRPRPRPQIFPRP | -0.0198
RRIRLRPPRLPRPRPRPESRPRP | 0.0418
RRIRNRPPRLPRPRPRPRQRPRP | 0.215
RRIRARPPRLPRPRPRPIDGPRP | 0.00408
RRIRGRPPRLPRPRPRPHTCPRP | 0.104
RRIRNRPPRLPRPRPRPMWHPRP | -0.404
RRIRARPPRLPRPRPRPTHAPRP | 0.528
RRIRLRPPRLPRPRPRPTGKPRP | -0.202
RRIRQRPPRLPRPRPRPQGLPRP | 0.0739
RRIRVRPPRLPRPRPRPFHGPRP | 0.162
RRIRMRPPRLPRPRPRPHIHPRP | -0.111
RRIRRRPPRLPRPRPRPGNGPRP | 0.372
RRIRDRPPRLPRPRPRPPLGPRP | 0.547
RRIRGRPPRLPRPRPRPFIWPRP | 0.351
RRIRWRPPRLPRPRPRPTNEPRP | 0.225
RRIRPRPPRLPRPRPRPHFRPRP | 0.0655

Sequence | shrunken log2 fold change
RRIRNRPPRLPRPRPRPCCGPRP | -0.148
RRIRYRPPRLPRPRPRPCMLPRP | -1.02
RRIRHRPPRLPRPRPRPCDMPRP | -0.302
RRIRYRPPRLPRPRPRPESSPRP | -0.0327
RRIRERPPRLPRPRPRPDDRPRP | -0.135
RRIRHRPPRLPRPRPRPTWIPRP | -0.206
RRIRQRPPRLPRPRPRPINSPRP | -0.413
RRIRIRPPRLPRPRPRPNCVPRP | -0.376
RRIRCRPPRLPRPRPRPYCTPRP | -0.503
RRIRQRPPRLPRPRPRPNTVPRP | -0.369
RRIRKRPPRLPRPRPRPADKPRP | 0.122
RRIRMRPPRLPRPRPRPSYFPRP | -0.293
RRIRNRPPRLPRPRPRPKKTPRP | -0.197
RRIRIRPPRLPRPRPRPHHNPRP | -0.0464
RRIRHRPPRLPRPRPRPVGPPRP | 0.195
RRIRRRPPRLPRPRPRPSQSPRP | 0.121
RRIRLRPPRLPRPRPRPMTGPRP | -0.0115
RRIRFRPPRLPRPRPRPFWTPRP | -0.257
RRIRERPPRLPRPRPRPFCMPRP | -0.126
RRIRRRPPRLPRPRPRPDGQPRP | 0.298
RRIRARPPRLPRPRPRPWKAPRP | -0.0198
RRIRNRPPRLPRPRPRPTYGPRP | -0.0506

Sequence | shrunken log2 fold change
RRIRHRPPRLPRPRPRPMRAPRP | 0.686
RRIRYRPPRLPRPRPRPFQFPRP | 0.015
RRIRFRPPRLPRPRPRPHNLPRP | -0.104
RRIRRRPPRLPRPRPRPPVGPRP | 0.366
RRIRMRPPRLPRPRPRPKNRPRP | 0.375
RRIRARPPRLPRPRPRPHDDPRP | -0.0805
RRIRVRPPRLPRPRPRPLEDPRP | 0.144
RRIRHRPPRLPRPRPRPVSRPRP | -0.0482
RRIRQRPPRLPRPRPRPYTSPRP | -0.0321
RRIRVRPPRLPRPRPRPNDTPRP | -0.228
RRIRKRPPRLPRPRPRPAALPRP | 0.831
RRIRVRPPRLPRPRPRPIPYPRP | -0.0701
RRIRSRPPRLPRPRPRPRDVPRP | -0.0918
RRIRFRPPRLPRPRPRPQYIPRP | -0.0295
RRIRMRPPRLPRPRPRPCYTPRP | -0.0524
RRIRDRPPRLPRPRPRPDASPRP | -0.012
RRIRARPPRLPRPRPRPMSPPRP | 0.342
RRIRNRPPRLPRPRPRPKWTPRP | -0.0342
RRIRQRPPRLPRPRPRPARGPRP | 0.126
RRIRDRPPRLPRPRPRPFLHPRP | 0.204
RRIRERPPRLPRPRPRPMNTPRP | -0.0609
RRIRDRPPRLPRPRPRPTWLPRP | 0.909

Sequence | shrunken log2 fold change
RRIRARPPRLPRPRPRPARTPRP | 0.584
RRIRARPPRLPRPRPRPEFHPRP | 0.847
RRIRHRPPRLPRPRPRPNCTPRP | -0.142
RRIRQRPPRLPRPRPRPYIYPRP | -0.0737
RRIRFRPPRLPRPRPRPPLAPRP | 0.628
RRIRERPPRLPRPRPRPKGYPRP | 0.016
RRIRYRPPRLPRPRPRPEEMPRP | -0.0902
RRIRKRPPRLPRPRPRPQWNPRP | -0.105
RRIRHRPPRLPRPRPRPRHCPRP | 0.03
RRIRGRPPRLPRPRPRPQGLPRP | 0.335
RRIRDRPPRLPRPRPRPQAIPRP | 0.0512
RRIRFRPPRLPRPRPRPQVKPRP | -0.279
RRIRNRPPRLPRPRPRPNYFPRP | 0.169
RRIRLRPPRLPRPRPRPMHFPRP | 0.108
RRIRTRPPRLPRPRPRPPWFPRP | 0.0438
RRIRYRPPRLPRPRPRPFLKPRP | -0.122
RRIRQRPPRLPRPRPRPASWPRP | 0.00959
RRIRFRPPRLPRPRPRPSHDPRP | -0.142
RRIRYRPPRLPRPRPRPFIGPRP | -1.58
RRIRYRPPRLPRPRPRPPDFPRP | -0.136
RRIRTRPPRLPRPRPRPAKKPRP | 0.00555
